{"source": "paper PMC2148200", "key": {"[1]": {"target": "human recombinant BMP-2 (human) (UniProt P12643)", "sequence (P12643 283-396)": "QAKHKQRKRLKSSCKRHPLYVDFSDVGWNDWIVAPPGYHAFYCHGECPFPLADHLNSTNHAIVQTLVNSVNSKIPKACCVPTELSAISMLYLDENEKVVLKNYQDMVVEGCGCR", "assay": "ELISA"}, "[2]": {"target": "TGF-β1", "assay": "ELISA"}}, "data": [{"substance": "recombinant human type IIA procollagen NH2-propeptide (rhIIA-GST, exon 2-GST fusion protein) (domain or fragment)", "values": [{"measurement": "Kd", "setting": "[1]", "result": 5.23, "unit": "nM"}, {"measurement": "Kd", "setting": "[2]", "result": 7.65, "unit": "nM"}]}]}
